Experimental findings from patent US20150064789 are described below.

Test in all cases: cell_activity
In data set [1] the test system is mROSA ZFN pair, Wt/L7a linkers (artificial). The following applies: Neuro2A, CEL-I; mock 0.4.
The test system of data set [2] is mROSA ZFN pair, Wt/Wt linkers (artificial). The following applies: Neuro2A, CEL-I; replicates 23.2, 18.7; mock 0.4.
Data set [3] has as its system CCR5 ZFN pair, L6a linker (artificial). The following applies: average of 2.
In data set [4] the test system is CCR5 ZFN pair, L7a linker (artificial). The following applies: average of 2.
Data set [5] has as its system CCR5 ZFN pair, wild-type ZC linker (8266 with partner) (artificial). The conditions noted are these: average of 2.
Data set [6] relates to rat IgM ZFN pair, L7a linker (artificial). The following applies: rat C6 cells, CEL-I.
Data set [7] has as its system rat IgM ZFN pair, ZC linkers (artificial). The conditions noted are these: rat C6 cells, CEL-I.

Take mROSA target, 6 bp gap: the results for the activity in data set [1] and in data set [2] were 7.5 % NHEJ and 22.6 % NHEJ, respectively.

For CCR5 target, 6 bp gap, the activity in data set [3] worked out at 25.4 % NHEJ; in data set [4], 31.8 % NHEJ; in data set [5] it was 11.1 % NHEJ.

The substance CCR5 target, 4 bp gap showed an activity in data set [5] of 1.2 % NHEJ.

Turning to “GTCATCCTCATCCTGAGTTTAAACTGCAAAAG (double strand) [CCR5 target, 8 bp gap]”, the activity in data set [4] amounted to 6.1 % NHEJ.

“GTCATCCTCATCCTGGTTTAAACTGCAAAAG (double strand) [CCR5 target, 7 bp gap]”: the activity is 5.1 % NHEJ in data set [3] and 39.6 % NHEJ in data set [4].

On to CCR5 target, 5 bp gap, for which the activity in data set [3] came to 39.3 % NHEJ; in data set [5], 35 % NHEJ.

As to rat IgM target, 6 bp gap, the activity in data set [6] turned out to be 2.43 % NHEJ; in data set [7], 1.93 % NHEJ.
